Measured values published in patent US20120077731A1 (Ablynx, published 2012).

How the values were obtained:
[1] = biological target: T1, Human membrane IL-6R on cells (human, UniProt P08887 20-468); test: cell-based or functional assay
T1 sequence (looked up): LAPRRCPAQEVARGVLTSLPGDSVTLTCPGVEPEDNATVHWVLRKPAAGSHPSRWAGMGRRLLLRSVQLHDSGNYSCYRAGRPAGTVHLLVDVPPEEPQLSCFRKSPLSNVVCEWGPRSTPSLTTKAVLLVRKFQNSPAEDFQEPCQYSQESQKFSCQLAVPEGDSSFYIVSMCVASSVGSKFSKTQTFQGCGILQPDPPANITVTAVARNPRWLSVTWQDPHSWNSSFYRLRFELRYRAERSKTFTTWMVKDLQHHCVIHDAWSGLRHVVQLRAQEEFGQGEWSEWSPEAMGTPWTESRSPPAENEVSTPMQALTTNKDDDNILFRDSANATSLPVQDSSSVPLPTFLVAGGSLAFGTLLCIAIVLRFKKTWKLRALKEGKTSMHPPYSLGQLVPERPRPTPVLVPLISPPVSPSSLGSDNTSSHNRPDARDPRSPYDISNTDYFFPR

[2] = biological target: T2, Human soluble IL-6R (human, UniProt P08887 20-358); test: Biacore T100, IL-6R covalently coupled
T2 construct: Soluble recombinant form; biotinylated in some assays; also called hIL-6R; human IL-6R
T2 sequence (looked up): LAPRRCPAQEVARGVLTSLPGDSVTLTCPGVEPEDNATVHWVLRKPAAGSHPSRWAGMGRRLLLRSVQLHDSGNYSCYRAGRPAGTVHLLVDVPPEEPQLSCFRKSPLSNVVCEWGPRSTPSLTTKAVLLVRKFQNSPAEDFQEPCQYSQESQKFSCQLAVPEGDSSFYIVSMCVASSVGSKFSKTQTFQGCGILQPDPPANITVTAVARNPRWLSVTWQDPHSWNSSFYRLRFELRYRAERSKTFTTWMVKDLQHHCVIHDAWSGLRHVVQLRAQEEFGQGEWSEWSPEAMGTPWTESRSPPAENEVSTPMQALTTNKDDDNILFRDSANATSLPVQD

[3] = biological target: T1, Human membrane IL-6R on cells; test: flow cytometry, human PBL, lymphocytes donor 1
[4] = biological target: T3, CNTF-R (UniProt P26992 23-346, limits assumed); test: competitive binding ELISA: IL6R20A11 (0.05 nM) pre-incubated with a series of the receptor; free IL6R20A11 captured on sIL-6R and detected via anti-His
T3 sequence (looked up): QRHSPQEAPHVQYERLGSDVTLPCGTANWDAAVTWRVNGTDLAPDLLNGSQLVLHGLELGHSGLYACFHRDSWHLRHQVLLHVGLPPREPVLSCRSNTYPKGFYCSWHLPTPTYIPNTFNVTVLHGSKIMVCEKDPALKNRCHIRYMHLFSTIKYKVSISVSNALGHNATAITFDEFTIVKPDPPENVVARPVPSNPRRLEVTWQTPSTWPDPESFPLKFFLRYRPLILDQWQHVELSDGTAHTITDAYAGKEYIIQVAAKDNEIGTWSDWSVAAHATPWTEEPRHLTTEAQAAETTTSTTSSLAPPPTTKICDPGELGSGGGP

[5] = biological target: T4, OSM-R (UniProt Q99650 28-739, limits assumed); test: as above
T4 sequence (looked up): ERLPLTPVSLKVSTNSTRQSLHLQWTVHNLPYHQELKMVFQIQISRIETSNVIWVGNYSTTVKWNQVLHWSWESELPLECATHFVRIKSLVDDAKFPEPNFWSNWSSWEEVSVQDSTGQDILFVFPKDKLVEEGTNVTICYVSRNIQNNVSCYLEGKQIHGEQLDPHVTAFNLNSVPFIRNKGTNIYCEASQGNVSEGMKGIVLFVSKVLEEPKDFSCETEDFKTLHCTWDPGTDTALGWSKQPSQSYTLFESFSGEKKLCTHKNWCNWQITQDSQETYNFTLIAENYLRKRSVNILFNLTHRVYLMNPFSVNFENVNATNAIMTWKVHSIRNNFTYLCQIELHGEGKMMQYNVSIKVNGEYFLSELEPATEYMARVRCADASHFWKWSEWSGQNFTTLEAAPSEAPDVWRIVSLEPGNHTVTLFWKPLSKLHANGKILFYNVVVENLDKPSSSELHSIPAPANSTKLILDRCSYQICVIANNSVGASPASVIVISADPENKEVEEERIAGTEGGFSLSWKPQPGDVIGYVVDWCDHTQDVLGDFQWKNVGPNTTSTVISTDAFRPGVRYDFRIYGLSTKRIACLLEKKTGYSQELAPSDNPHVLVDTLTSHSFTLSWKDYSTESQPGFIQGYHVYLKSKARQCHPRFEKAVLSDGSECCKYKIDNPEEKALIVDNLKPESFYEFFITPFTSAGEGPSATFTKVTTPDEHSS

[6] = biological target: T5, IL-11R/Fc (UniProt Q14626 23-370); test: as above
T5 construct: not shown: Fc part, not described
T5 sequence (looked up): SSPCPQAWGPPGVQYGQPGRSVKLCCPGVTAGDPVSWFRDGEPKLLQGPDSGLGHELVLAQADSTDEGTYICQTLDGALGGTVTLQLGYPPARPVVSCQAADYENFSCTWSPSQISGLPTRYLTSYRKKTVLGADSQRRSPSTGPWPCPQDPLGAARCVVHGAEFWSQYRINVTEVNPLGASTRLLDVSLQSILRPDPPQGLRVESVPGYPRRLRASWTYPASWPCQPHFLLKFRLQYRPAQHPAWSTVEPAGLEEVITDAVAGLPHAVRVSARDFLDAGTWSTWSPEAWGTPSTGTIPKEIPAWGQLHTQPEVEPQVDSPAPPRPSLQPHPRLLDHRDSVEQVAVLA

B1: PMP20A11 (VHH)
VHH: EVQLVESGGGLVQPGGSLRLSCAASGSVFKINVMAWYRQAPGKGRELVAGIISGGSTSYADSVKGRFTISRDNAKNTLYLQMNSLRPEDTAVYYCAFITTESDYDLGRRYWGQGTLVTVSS
notes: also called IL6R20A11; IL6R300; not shown: c-myc and (His)6 tags
IC50, TF1 assay [1]: 0.4 nM | koff [2]: 1.9e-05 s⁻¹ | EC50 [3]: 3.65 nM | binding result [4]: no binding (tested: 5 nM (log conc 0.7)) | binding result [5]: no binding (tested: 5 nM (log conc 0.7)) | binding result [6]: no binding (tested: 5 nM (log conc 0.7))
